B1: AP-Nogo66-His, wild type (alkaline phosphatase fusion of the NOGO66 domain of reticulon-4) [human] / RTNR-FLAG-His (Nogo66 receptor) on HEK293T cells [not stated] (parent)
chain 1: RIYKGVIQAIQKSDEGHPFRAYLESEVAISEELVQKYSNSALGHVNCTIKELRRLFLVDDLVDSLK
chain 2: CPGACVCYNEPKVTTSCPQQGLQAVPVGIPAASQRIFLHGNRISHVPAASFRACRNLTILWLHSNVLARIDAAAFTGLALLEQLDLSDNAQLRSVDPATFHGLGRLHTLHLDRCGLQELGPGLFRGLAALQYLYLQDNALQALPDDTFRDLGNLTHLFLHGNRISSVPERAFRGLHSLDRLLLHQNRVAHVHPHAFRDLGRLMTLYLFANNLSALPTEALAPLRALQYLRLNDNPWVCDCRARPLWAWLQKFRGSSSEVPCSLPQRLAGRDLKRLAANDLQGCAVATGPYHPIWTGRATDEEPLGLPKCCQPDAADKASVLEPGRPASAGNALKGRVPPGDSPPGNGSGPRHINDSPFGTLPGSAEPPLTAVRPEGSEPPGFPTSGPRRRPGCSRKNRTRSHCRLGQAGSGGGGTGDSEGS

Variants of: B1
Experiment: AP (alkaline phosphatase fusion) receptor binding assay on HEK293T cells overexpressing RTNR
Conditions: with RTNR-FLAG-His (Nogo66 receptor) on HEK293T cells; RTNR OE HEK293T cells; n = 3 biological replicates, mean ± s.d.; parent: 0.00087; read off a plot

Variant | response (min^-1 (absorbance/time))
chain 1 RIYKGVIQAIQKSDEGHPFRAYLESEVAISEELVQKYSNSALGHVNWTIKELRRLFLVDDLVDSLK | 0.0015

— article PMC13423832
